Measured values: the supplement of paper PMC10899765

Tested on: MCF10A
Assay: percent viability (nuclei count relative to siNT); higher = more viable cells
Settings: 20 nM; 72 h
Method: (§1)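 After 72 h, cells were fixed and stained with Hoechst and anti-fibrillarin, and nucleoli per nucleus were counted with CellProfiler. Values are plate-adjusted percent effect for the one-nucleolus and 5+ nucleoli phenotypes, normalised to siNT (0%) and to the positive controls siNOL11 or siKIF11 (100%), as the mean of biological triplicates. Percent viability is the nuclei count relative to siNT.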

Sequence | percent viability [%]
GAAGGCGCUUCCCUUUGGAGU [hsa-miR-524-3p] | 70.4
CCUGCGAGUCUCCGGCGGUGG [hsa-miR-6068] | 97.4
UUUAGAGACGGGGUCUUGCUCU [hsa-miR-1303] | 71.3
GAAGUUGCCCAUGUUAUUUUCG [hsa-miR-495-5p] | 42.2
CCCUCAUCUUCCCCUCCUUUC [hsa-miR-6891-3p] | 35.9
UCAUCCCCCUCGCCCUCUCAG [hsa-miR-6729-3p] | 58.8
CUGGGUUGGGCUGGGCUGGG [hsa-miR-4507] | 28.4
AACAUCACUGCAAGUCUUAACA [hsa-miR-499b-3p] | 77
UAGGGGGCGGCUUGUGGAGUGU [hsa-miR-6805-5p] | 27
GCUCGGACUGAGCAGGUGGG [hsa-miR-3917] | 57.6
GCAGCCCAGCUGAGGCCUCUG [hsa-miR-4690-3p] | 119
ACAGUAGUCUGCACAUUGGUUA [hsa-miR-199b-3p] | 92
GGUUGGGCAGUGAGGAGGGUGUGA [hsa-miR-3147] | 26
GUGCCACCUUAACUGCAGCCAAU [hsa-miR-4715-3p] | 53.4
GUGCAAAAGUCAUCACGGUU [hsa-miR-548aw] | 57.6
CCUCUUCCCCUUGUCUCUCCAG [hsa-miR-1236-3p] | 76.4
UCACAGUGAACCGGUCUCUUU [hsa-miR-128] | 81.7
AUUUCCCUGCCAUUCCCUUGGC [hsa-miR-4446-5p] | 18.4
UCAAAUGCUCAGACUCCUGUGGU [hsa-miR-105-5p] | 37.7
UGAGGCCCUUGGGGCACAGUGG [hsa-miR-5008-5p] | 22.9
UCCACUCUCCUGGCCCCCAG [hsa-miR-6777-3p] | 51
UGAGGGACCCAGGACAGGAGA [hsa-miR-6875-5p] | 29
UGAAGUACCAGCUACUCGAGAG [hsa-miR-5585-5p] | 36.7

Sequence | percent viability [%]
AGGGACCUGAGUGUCUAAG [hsa-miR-3649] | 71
UGUAACAGCAACUCCAUGUGGA [hsa-miR-194-5p] | 84.3
UUCUCUCUGUCUUUCUCUCUCAG [hsa-miR-6873-3p] | 35.2
CCACCGGGGGAUGAAUGUCAC [hsa-miR-181d-3p] | 40.6
CAUAGCCCGGUCGCUGGUACAUGA [hsa-miR-3651] | 70
AAGGGCUUCCUCUCUGCAGGAC [hsa-miR-3158-3p] | 12.1
CUCCGGGACGGCUGGGC [hsa-miR-4497] | 67.6
AGCUGGUAAAAUGGAACCAAAU [hsa-miR-133a-5p] | 30.7
ACAGUAGAGGGAGGAAUCGCAG [hsa-miR-936] | 61.7
AAUGGAUUUUUGGAGCAGG [hsa-miR-1246] | 33
UGCCUGGAACAUAGUAGGGACU [hsa-miR-3116] | 23.8
UGUUUCGGGGCUCAUGGCCUGUG [hsa-miR-5705] | 136
UGGUCUGUCUCUGCCCUGGCAC [hsa-miR-6753-3p] | 21.6
UCUGGUAAGAGAUUUGGGCAUA [hsa-miR-4490] | 54.4
ACUAAAGGAUAUAGAAGGUUUU [hsa-miR-4509] | 103
CAAAAACCACAGUUUCUUUUGC [hsa-miR-548d-3p] | 65.5
UCUGUGAGACCAAAGAACUACU [hsa-miR-4677-3p] | 28.6
CAGUGCAAUGAUAUUGUCAAAGC [hsa-miR-301b] | 95.6
AAUCAUGUGCAGUGCCAAUAUG [hsa-miR-96-3p] | 28.5
CUACCCUCGGUCUGCUUACCACA [hsa-miR-7848-3p] | 41.7
AUGAUCCAGGAACCUGCCUCU [hsa-miR-640] | 32.2
AACACACCUAUUCAAGGAUUCA [hsa-miR-362-3p] | 47.7

Tested on: MCF10A
Assay: 5+ nucleoli phenotype percent effect (relative to siNT 0% and siKIF11 100%); higher = more cells with five or more nucleoli
Settings: 20 nM; 72 h
Method: as §1

Sequence | 5+ nucleoli phenotype percent effect [%]
GAAGGCGCUUCCCUUUGGAGU [hsa-miR-524-3p] | -9.32
CCUGCGAGUCUCCGGCGGUGG [hsa-miR-6068] | 24.3
UUUAGAGACGGGGUCUUGCUCU [hsa-miR-1303] | 17.6
GAAGUUGCCCAUGUUAUUUUCG [hsa-miR-495-5p] | -1.1
CCCUCAUCUUCCCCUCCUUUC [hsa-miR-6891-3p] | -10.8
UCAUCCCCCUCGCCCUCUCAG [hsa-miR-6729-3p] | 10.2
CUGGGUUGGGCUGGGCUGGG [hsa-miR-4507] | -11.1
AACAUCACUGCAAGUCUUAACA [hsa-miR-499b-3p] | -7.16
UAGGGGGCGGCUUGUGGAGUGU [hsa-miR-6805-5p] | 0.0052
GCUCGGACUGAGCAGGUGGG [hsa-miR-3917] | 32.5
GCAGCCCAGCUGAGGCCUCUG [hsa-miR-4690-3p] | 21.1
ACAGUAGUCUGCACAUUGGUUA [hsa-miR-199b-3p] | 36.1
GGUUGGGCAGUGAGGAGGGUGUGA [hsa-miR-3147] | 31
GUGCCACCUUAACUGCAGCCAAU [hsa-miR-4715-3p] | -23.5
GUGCAAAAGUCAUCACGGUU [hsa-miR-548aw] | -29.9
CCUCUUCCCCUUGUCUCUCCAG [hsa-miR-1236-3p] | 14.8
UCACAGUGAACCGGUCUCUUU [hsa-miR-128] | -27.9
AUUUCCCUGCCAUUCCCUUGGC [hsa-miR-4446-5p] | -36
UCAAAUGCUCAGACUCCUGUGGU [hsa-miR-105-5p] | -18
UGAGGCCCUUGGGGCACAGUGG [hsa-miR-5008-5p] | -8.69
UCCACUCUCCUGGCCCCCAG [hsa-miR-6777-3p] | 14.3
UGAGGGACCCAGGACAGGAGA [hsa-miR-6875-5p] | -0.911
UGAAGUACCAGCUACUCGAGAG [hsa-miR-5585-5p] | -8.83

Sequence | 5+ nucleoli phenotype percent effect [%]
AGGGACCUGAGUGUCUAAG [hsa-miR-3649] | -0.628
UGUAACAGCAACUCCAUGUGGA [hsa-miR-194-5p] | -7.22
UUCUCUCUGUCUUUCUCUCUCAG [hsa-miR-6873-3p] | 46.6
CCACCGGGGGAUGAAUGUCAC [hsa-miR-181d-3p] | -15.9
CAUAGCCCGGUCGCUGGUACAUGA [hsa-miR-3651] | -7.1
AAGGGCUUCCUCUCUGCAGGAC [hsa-miR-3158-3p] | -9.95
CUCCGGGACGGCUGGGC [hsa-miR-4497] | 0.934
AGCUGGUAAAAUGGAACCAAAU [hsa-miR-133a-5p] | -4.69
ACAGUAGAGGGAGGAAUCGCAG [hsa-miR-936] | 14.1
AAUGGAUUUUUGGAGCAGG [hsa-miR-1246] | -4.08
UGCCUGGAACAUAGUAGGGACU [hsa-miR-3116] | -20.8
UGUUUCGGGGCUCAUGGCCUGUG [hsa-miR-5705] | 33.2
UGGUCUGUCUCUGCCCUGGCAC [hsa-miR-6753-3p] | -4.31
UCUGGUAAGAGAUUUGGGCAUA [hsa-miR-4490] | 46.4
ACUAAAGGAUAUAGAAGGUUUU [hsa-miR-4509] | 5.5
CAAAAACCACAGUUUCUUUUGC [hsa-miR-548d-3p] | -4.46
UCUGUGAGACCAAAGAACUACU [hsa-miR-4677-3p] | -42.7
CAGUGCAAUGAUAUUGUCAAAGC [hsa-miR-301b] | 45.2
AAUCAUGUGCAGUGCCAAUAUG [hsa-miR-96-3p] | 24.5
CUACCCUCGGUCUGCUUACCACA [hsa-miR-7848-3p] | -35.7
AUGAUCCAGGAACCUGCCUCU [hsa-miR-640] | -28.9
AACACACCUAUUCAAGGAUUCA [hsa-miR-362-3p] | 30.7

Tested on: MCF10A
Assay: one-nucleolus phenotype percent effect (relative to siNT 0% and siNOL11 100%); higher = more cells with one nucleolus (ribosome biogenesis inhibition)
Settings: 20 nM; 72 h
Method: as §1

Sequence | one-nucleolus phenotype percent effect [%]
GAAGGCGCUUCCCUUUGGAGU [hsa-miR-524-3p] | 35.1
CCUGCGAGUCUCCGGCGGUGG [hsa-miR-6068] | -17.2
UUUAGAGACGGGGUCUUGCUCU [hsa-miR-1303] | -10.2
GAAGUUGCCCAUGUUAUUUUCG [hsa-miR-495-5p] | 1.67
CCCUCAUCUUCCCCUCCUUUC [hsa-miR-6891-3p] | 36.8
UCAUCCCCCUCGCCCUCUCAG [hsa-miR-6729-3p] | -21.1
CUGGGUUGGGCUGGGCUGGG [hsa-miR-4507] | -1.41
AACAUCACUGCAAGUCUUAACA [hsa-miR-499b-3p] | -24.7
UAGGGGGCGGCUUGUGGAGUGU [hsa-miR-6805-5p] | 18.2
GCUCGGACUGAGCAGGUGGG [hsa-miR-3917] | -20.1
GCAGCCCAGCUGAGGCCUCUG [hsa-miR-4690-3p] | -17.1
ACAGUAGUCUGCACAUUGGUUA [hsa-miR-199b-3p] | -19.3
GGUUGGGCAGUGAGGAGGGUGUGA [hsa-miR-3147] | -13.3
GUGCCACCUUAACUGCAGCCAAU [hsa-miR-4715-3p] | 6.34
GUGCAAAAGUCAUCACGGUU [hsa-miR-548aw] | -0.384
CCUCUUCCCCUUGUCUCUCCAG [hsa-miR-1236-3p] | -6.25
UCACAGUGAACCGGUCUCUUU [hsa-miR-128] | 12.2
AUUUCCCUGCCAUUCCCUUGGC [hsa-miR-4446-5p] | 28.2
UCAAAUGCUCAGACUCCUGUGGU [hsa-miR-105-5p] | -6.5
UGAGGCCCUUGGGGCACAGUGG [hsa-miR-5008-5p] | 6.37
UCCACUCUCCUGGCCCCCAG [hsa-miR-6777-3p] | -16.2
UGAGGGACCCAGGACAGGAGA [hsa-miR-6875-5p] | 13.7
UGAAGUACCAGCUACUCGAGAG [hsa-miR-5585-5p] | -3.33

Sequence | one-nucleolus phenotype percent effect [%]
AGGGACCUGAGUGUCUAAG [hsa-miR-3649] | 9.08
UGUAACAGCAACUCCAUGUGGA [hsa-miR-194-5p] | 8.64
UUCUCUCUGUCUUUCUCUCUCAG [hsa-miR-6873-3p] | -19
CCACCGGGGGAUGAAUGUCAC [hsa-miR-181d-3p] | 24.4
CAUAGCCCGGUCGCUGGUACAUGA [hsa-miR-3651] | 17.1
AAGGGCUUCCUCUCUGCAGGAC [hsa-miR-3158-3p] | 32.8
CUCCGGGACGGCUGGGC [hsa-miR-4497] | -8.42
AGCUGGUAAAAUGGAACCAAAU [hsa-miR-133a-5p] | 7.21
ACAGUAGAGGGAGGAAUCGCAG [hsa-miR-936] | -2.74
AAUGGAUUUUUGGAGCAGG [hsa-miR-1246] | 3.6
UGCCUGGAACAUAGUAGGGACU [hsa-miR-3116] | 2.45
UGUUUCGGGGCUCAUGGCCUGUG [hsa-miR-5705] | -18.8
UGGUCUGUCUCUGCCCUGGCAC [hsa-miR-6753-3p] | 39.6
UCUGGUAAGAGAUUUGGGCAUA [hsa-miR-4490] | -25.9
ACUAAAGGAUAUAGAAGGUUUU [hsa-miR-4509] | -25.3
CAAAAACCACAGUUUCUUUUGC [hsa-miR-548d-3p] | -0.45
UCUGUGAGACCAAAGAACUACU [hsa-miR-4677-3p] | 23.1
CAGUGCAAUGAUAUUGUCAAAGC [hsa-miR-301b] | -11.1
AAUCAUGUGCAGUGCCAAUAUG [hsa-miR-96-3p] | 1.6
CUACCCUCGGUCUGCUUACCACA [hsa-miR-7848-3p] | 25.5
AUGAUCCAGGAACCUGCCUCU [hsa-miR-640] | 28.8
AACACACCUAUUCAAGGAUUCA [hsa-miR-362-3p] | -7.86
